In patent US20240261333A1, “NOVEL TARGETS FOR ENHANCING ANTI-TUMOR IMMUNITY” (THE BROAD INSTITUTE, INC., priority 2021, published 2024):

Experiments:
[1] = target: ATP1A1 (human) (UniProt P05023); experiment: co-IP/MS, anti-FLAG IP of N-FLAG B3GNT2 cell lysate
[2] = target: CASP14 (human) (UniProt P31944); experiment: as above
[3] = target: PIP (human) (UniProt P12273); experiment: as above
[4] = target: CAPZB (human) (UniProt P47756); experiment: as above
[5] = target: ERLIN1 (human) (UniProt O75477); experiment: as above
[6] = target: RPLPO (human) (UniProt P05388); experiment: as above
[7] = target: IPO4 (human) (UniProt Q8TEX9); experiment: as above
[8] = target: CALU (human) (UniProt O43852); experiment: as above
[9] = target: TGM3 (human) (UniProt Q08188); experiment: as above
[10] = target: SQSTM1 (human) (UniProt Q13501); experiment: as above
[11] = target: CAPZA1 (human) (UniProt P52907); experiment: as above
[12] = target: PDIA6 (human) (UniProt Q15084); experiment: as above
[13] = target: RCN2 (human) (UniProt Q14257); experiment: as above
[14] = target: PCBP1 (human) (UniProt Q15365); experiment: as above
[15] = target: GCN1 (human) (UniProt Q92616); experiment: as above
[16] = target: SLC25A4 (human) (UniProt P12235); experiment: as above
[17] = target: RUVBL2 (human) (UniProt Q9Y230); experiment: co-IP with IgG control, lysate of N-FLAG B3GNT2 cells, mass spectrometry
[18] = target: HNRNPH1 (human) (UniProt P31943); experiment: as above
[19] = target: MMS19 (human) (UniProt Q96T76); experiment: as above
[20] = target: RPL7A (human) (UniProt P62424); experiment: as above
[21] = target: LUC7L3 (human) (UniProt O95232); experiment: as above
[22] = target: PRRC2C (human) (UniProt Q9Y520); experiment: as above
[23] = target: RPS24 (human) (UniProt P62847); experiment: as above
[24] = target: PURA (human) (UniProt Q00577); experiment: as above
[25] = target: XPO1 (human) (UniProt O14980); experiment: as above
[26] = target: SPARC (human) (UniProt P09486); experiment: as above
[27] = target: RBM14 (human) (UniProt Q96PK6); experiment: as above
[28] = target: RPL17 (human) (UniProt P18621); experiment: as above
[29] = target: TM9SF1 (human) (UniProt O15321); experiment: as above
[30] = target: P4HA2 (human) (UniProt O15460); experiment: as above
[31] = target: TPM2 (human) (UniProt P07951); experiment: as above
[32] = target: COPA (human) (UniProt P53621); experiment: as above
[33] = target: NAP1L1 (human) (UniProt P55209); experiment: as above
[34] = target: RPS20 (human) (UniProt P60866); experiment: as above
[35] = target: CPT1A (human) (UniProt P50416); experiment: as above
[36] = target: DDX17 (human) (UniProt Q92841); experiment: as above
[37] = target: ARPC1B (human) (UniProt O15143); experiment: as above

CALU (human), sequence (O43852 20-315 limits assumed): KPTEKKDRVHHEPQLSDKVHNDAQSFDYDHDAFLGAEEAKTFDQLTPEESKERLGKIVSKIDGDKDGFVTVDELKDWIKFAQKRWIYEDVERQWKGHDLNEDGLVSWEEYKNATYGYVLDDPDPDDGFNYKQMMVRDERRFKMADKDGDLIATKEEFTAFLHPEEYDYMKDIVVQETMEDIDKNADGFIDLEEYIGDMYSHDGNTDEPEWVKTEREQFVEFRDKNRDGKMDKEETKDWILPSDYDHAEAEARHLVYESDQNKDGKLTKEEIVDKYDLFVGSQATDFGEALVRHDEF
IPO4 (human), sequence (Q8TEX9 whole entry): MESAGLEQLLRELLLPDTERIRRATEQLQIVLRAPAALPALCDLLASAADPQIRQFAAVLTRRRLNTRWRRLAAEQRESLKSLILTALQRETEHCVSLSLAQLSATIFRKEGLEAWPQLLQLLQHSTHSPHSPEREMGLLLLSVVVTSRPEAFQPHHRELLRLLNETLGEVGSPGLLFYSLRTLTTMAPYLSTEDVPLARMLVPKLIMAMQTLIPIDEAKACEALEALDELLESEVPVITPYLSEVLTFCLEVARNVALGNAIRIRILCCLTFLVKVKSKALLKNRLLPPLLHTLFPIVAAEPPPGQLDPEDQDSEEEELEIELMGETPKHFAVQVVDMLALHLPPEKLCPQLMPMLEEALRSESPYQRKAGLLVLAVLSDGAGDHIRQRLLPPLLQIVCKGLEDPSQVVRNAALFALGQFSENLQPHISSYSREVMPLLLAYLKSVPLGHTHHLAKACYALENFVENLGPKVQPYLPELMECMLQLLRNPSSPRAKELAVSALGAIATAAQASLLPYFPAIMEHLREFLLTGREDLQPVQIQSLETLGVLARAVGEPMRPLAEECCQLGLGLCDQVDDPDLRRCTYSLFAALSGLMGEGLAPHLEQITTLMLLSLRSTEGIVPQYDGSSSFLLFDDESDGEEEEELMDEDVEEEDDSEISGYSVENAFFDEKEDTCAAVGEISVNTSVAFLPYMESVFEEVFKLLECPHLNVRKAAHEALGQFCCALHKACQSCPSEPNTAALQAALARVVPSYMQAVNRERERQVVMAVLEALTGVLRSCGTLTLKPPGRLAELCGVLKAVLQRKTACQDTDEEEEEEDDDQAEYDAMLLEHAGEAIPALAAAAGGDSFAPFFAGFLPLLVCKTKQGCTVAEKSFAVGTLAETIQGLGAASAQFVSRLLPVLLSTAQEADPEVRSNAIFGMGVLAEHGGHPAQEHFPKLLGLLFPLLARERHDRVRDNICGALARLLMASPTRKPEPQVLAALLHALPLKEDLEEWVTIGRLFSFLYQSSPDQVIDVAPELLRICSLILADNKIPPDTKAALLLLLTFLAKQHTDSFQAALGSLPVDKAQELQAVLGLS
MMS19 (human), sequence (Q96T76 other isoform, or with tags, fused parts or gaps limits assumed): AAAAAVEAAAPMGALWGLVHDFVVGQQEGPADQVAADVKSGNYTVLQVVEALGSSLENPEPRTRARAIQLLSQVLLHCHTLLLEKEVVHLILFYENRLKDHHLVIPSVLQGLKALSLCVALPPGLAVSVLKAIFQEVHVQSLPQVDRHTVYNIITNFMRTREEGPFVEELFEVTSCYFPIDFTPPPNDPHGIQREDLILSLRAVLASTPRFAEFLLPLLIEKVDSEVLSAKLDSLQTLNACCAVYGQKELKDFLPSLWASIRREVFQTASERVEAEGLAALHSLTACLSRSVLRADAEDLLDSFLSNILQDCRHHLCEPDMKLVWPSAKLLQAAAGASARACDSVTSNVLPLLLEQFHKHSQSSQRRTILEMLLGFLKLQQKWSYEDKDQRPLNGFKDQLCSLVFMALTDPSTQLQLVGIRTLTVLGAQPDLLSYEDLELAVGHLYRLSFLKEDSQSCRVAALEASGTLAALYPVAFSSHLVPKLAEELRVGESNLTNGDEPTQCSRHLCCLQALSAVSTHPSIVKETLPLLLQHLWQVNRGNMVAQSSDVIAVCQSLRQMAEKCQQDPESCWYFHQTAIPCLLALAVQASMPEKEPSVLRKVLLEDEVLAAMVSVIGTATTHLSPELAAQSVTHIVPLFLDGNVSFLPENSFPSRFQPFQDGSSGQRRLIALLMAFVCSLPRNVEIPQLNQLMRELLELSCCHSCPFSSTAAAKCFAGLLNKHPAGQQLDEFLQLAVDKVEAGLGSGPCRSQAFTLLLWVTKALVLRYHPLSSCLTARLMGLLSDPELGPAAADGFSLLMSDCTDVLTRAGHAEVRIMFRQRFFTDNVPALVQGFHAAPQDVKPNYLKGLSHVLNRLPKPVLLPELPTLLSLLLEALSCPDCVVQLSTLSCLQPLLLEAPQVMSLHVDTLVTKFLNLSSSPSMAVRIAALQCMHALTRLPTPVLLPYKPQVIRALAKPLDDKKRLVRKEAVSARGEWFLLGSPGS
ERLIN1 (human), sequence (O75477 whole entry): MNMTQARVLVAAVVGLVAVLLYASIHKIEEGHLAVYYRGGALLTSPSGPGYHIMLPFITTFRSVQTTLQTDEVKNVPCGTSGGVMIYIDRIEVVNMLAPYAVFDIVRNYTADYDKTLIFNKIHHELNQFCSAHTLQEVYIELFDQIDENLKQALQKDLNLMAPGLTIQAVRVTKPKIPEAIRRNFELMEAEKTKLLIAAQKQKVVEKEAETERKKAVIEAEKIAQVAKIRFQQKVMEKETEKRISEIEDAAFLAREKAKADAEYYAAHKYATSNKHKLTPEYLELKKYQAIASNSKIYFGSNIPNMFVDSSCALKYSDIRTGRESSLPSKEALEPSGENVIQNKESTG
SPARC (human), sequence (P09486 18-303 limits assumed): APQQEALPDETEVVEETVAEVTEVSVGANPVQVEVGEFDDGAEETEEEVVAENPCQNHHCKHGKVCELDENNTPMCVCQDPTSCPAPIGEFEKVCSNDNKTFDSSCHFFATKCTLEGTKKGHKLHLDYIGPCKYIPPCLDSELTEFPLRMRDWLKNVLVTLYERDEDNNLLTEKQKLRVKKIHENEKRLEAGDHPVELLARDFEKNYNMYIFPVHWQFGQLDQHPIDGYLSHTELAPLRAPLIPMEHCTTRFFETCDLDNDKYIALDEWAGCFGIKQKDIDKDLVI
COPA (human), sequence (P53621 whole entry): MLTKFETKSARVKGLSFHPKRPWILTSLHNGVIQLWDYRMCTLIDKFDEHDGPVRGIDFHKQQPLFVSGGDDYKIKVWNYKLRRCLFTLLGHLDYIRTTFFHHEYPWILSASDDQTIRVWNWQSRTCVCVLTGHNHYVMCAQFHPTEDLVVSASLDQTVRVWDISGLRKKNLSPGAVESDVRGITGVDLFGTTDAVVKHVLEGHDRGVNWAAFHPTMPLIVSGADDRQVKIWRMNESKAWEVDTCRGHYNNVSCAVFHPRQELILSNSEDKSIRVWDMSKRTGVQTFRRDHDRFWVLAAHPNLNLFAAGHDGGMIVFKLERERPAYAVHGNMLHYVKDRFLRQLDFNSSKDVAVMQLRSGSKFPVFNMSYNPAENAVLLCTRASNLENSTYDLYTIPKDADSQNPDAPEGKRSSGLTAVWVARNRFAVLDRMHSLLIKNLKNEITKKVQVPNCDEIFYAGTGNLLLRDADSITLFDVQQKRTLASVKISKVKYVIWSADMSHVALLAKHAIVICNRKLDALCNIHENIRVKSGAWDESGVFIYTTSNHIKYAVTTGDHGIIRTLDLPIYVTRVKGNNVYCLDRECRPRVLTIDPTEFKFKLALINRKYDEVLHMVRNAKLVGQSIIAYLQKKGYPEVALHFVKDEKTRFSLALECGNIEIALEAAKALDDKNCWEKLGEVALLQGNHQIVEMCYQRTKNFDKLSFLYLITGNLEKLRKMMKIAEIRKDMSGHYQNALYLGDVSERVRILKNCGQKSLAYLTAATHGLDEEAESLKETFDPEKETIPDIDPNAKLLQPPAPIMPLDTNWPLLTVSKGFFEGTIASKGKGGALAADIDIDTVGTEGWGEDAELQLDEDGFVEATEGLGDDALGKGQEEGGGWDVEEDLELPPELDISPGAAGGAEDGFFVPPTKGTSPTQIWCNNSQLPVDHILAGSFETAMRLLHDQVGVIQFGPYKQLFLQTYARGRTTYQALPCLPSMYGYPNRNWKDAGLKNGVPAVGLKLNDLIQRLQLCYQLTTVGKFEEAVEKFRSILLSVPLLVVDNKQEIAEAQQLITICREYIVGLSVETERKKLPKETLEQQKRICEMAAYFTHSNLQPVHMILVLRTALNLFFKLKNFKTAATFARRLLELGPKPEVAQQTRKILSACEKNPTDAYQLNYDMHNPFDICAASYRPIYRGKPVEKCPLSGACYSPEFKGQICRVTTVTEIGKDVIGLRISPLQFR
PCBP1 (human), sequence (Q15365 whole entry): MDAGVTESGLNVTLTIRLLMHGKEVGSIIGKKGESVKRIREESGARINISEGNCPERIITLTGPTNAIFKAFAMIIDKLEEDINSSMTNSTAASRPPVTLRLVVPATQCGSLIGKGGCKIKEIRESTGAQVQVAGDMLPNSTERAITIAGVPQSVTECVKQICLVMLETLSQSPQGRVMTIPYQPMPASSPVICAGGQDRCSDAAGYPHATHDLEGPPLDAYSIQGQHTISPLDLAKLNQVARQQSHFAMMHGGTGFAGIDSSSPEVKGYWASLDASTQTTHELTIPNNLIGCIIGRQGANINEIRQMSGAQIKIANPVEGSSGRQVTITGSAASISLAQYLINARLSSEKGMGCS
SLC25A4 (human), sequence (P12235 2-298 limits assumed): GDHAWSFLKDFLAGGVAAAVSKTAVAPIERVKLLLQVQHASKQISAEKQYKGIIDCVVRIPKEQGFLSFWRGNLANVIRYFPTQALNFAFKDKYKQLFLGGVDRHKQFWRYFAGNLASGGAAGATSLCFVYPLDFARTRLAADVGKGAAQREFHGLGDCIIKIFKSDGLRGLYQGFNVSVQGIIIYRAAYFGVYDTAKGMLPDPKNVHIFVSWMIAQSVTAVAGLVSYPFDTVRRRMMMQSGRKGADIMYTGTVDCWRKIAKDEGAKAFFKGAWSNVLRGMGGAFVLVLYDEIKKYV
PIP (human), sequence (P12273 29-146 limits assumed): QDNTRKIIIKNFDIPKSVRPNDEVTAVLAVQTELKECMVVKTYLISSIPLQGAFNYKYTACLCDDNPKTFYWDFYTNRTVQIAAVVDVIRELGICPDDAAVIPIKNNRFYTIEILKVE

Q: Which co-IP mass spectrometry count [1] does the source give for “N-terminal FLAG tagged B3GNT2 (from UniProt Q9NY97 1-397) (enzyme)” here?
A: The co-IP mass spectrometry count was 11.

Q: And the co-IP mass spectrometry count [2]?
A: The co-IP mass spectrometry count was 8.

Q: What about the co-IP mass spectrometry count [3] of the same substance?
A: The co-IP mass spectrometry count was 4.

Q: And the co-IP mass spectrometry count [4]?
A: The co-IP mass spectrometry count was 2.

Q: And the co-IP mass spectrometry count [5]?
A: Its co-IP mass spectrometry count is 11.

Q: What about the co-IP mass spectrometry count [6] of the same substance?
A: The co-IP mass spectrometry count was 6.

Q: And the co-IP mass spectrometry count [7]?
A: Its co-IP mass spectrometry count is 3.

Q: What about the co-IP mass spectrometry count [8] of the same substance?
A: Its co-IP mass spectrometry count is 10.

Q: What about the co-IP mass spectrometry count [9] of the same substance?
A: Its co-IP mass spectrometry count is 9.

Q: What about the co-IP mass spectrometry count [10] of the same substance?
A: Its co-IP mass spectrometry count is 3.

Q: And the co-IP mass spectrometry count [11]?
A: Its co-IP mass spectrometry count is 2.

Q: What about the co-IP mass spectrometry count [12] of the same substance?
A: The co-IP mass spectrometry count was 5.

Q: And the co-IP mass spectrometry count [13]?
A: The co-IP mass spectrometry count was 7.

Q: And the co-IP mass spectrometry count [14]?
A: Its co-IP mass spectrometry count is 4.

Q: And the co-IP mass spectrometry count [15]?
A: Its co-IP mass spectrometry count is 14.

Q: What about the co-IP mass spectrometry count [16] of the same substance?
A: Its co-IP mass spectrometry count is 9.

Q: What does the source list for “IgG control (Millipore Sigma 12-371) (antibody)”?
A: co-IP/MS count, N-term IgG [17]: 0; co-IP/MS count, N-term IgG [18]: 11; co-IP/MS count, N-term IgG [19]: 0; co-IP/MS count, N-term IgG [20]: 4; co-IP/MS count, N-term IgG [21]: 2; co-IP/MS count, N-term IgG [22]: 11; co-IP/MS count, N-term IgG [23]: 4; co-IP/MS count, N-term IgG [24]: 2; co-IP/MS count, N-term IgG [25]: 0; co-IP/MS count, N-term IgG [26]: 0; co-IP/MS count, N-term IgG [27]: 4; co-IP/MS count, N-term IgG [28]: 0; co-IP/MS count, N-term IgG [29]: 0; co-IP/MS count, N-term IgG [30]: 0; co-IP/MS count, N-term IgG [31]: 0; co-IP/MS count, N-term IgG [32]: 0; co-IP/MS count, N-term IgG [33]: 0; co-IP/MS count, N-term IgG [34]: 4; co-IP/MS count, N-term IgG [35]: 0; co-IP/MS count, N-term IgG [36]: 23; co-IP/MS count, N-term IgG [37]: 2
